Laboratory results as given in the supplement of paper PMC9170038.

Tested on: MS2 coat protein
Experiment: apparent KD of MS2 coat protein; designed switch direction (-1 OFF switch, 1 ON switch): -1; higher = weaker reporter binding
Procedure, shortened: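 Stalled E. coli RNA polymerase transcribed designed RNA switches on Illumina chips, which were then titrated with SNAP-549-labelled MS2 coat protein, doubling from 0.7 or 1.5 nM to 3 µM. Steps lasted from 0.8–1.5 h at the lowest concentration to 10–20 min at the highest. The apparent KD is each design's median over clusters of curve-fitted normalised fluorescence.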

[1] = input ligand: microRNA oligo, concentration not stated
[2] = Eterna round: R95, input ligand: FMN 200 uM
[3] = Eterna round: R95, input ligand: microRNA oligo, concentration not stated
[4] = Eterna round: R95, input ligand: none

| Sequence | apparent KD of MS2 coat protein (input ligand: FMN 200 uM) [nM] | apparent KD of MS2 coat protein (input ligand: none) [nM] | apparent KD of MS2 coat protein [1] [nM] | apparent KD of MS2 coat protein [2] [nM] | apparent KD of MS2 coat protein [3] [nM] | apparent KD of MS2 coat protein [4] [nM] |
| --- | --- | --- | --- | --- | --- | --- |
| UUAUUGUGAGGAUAUAUAUGCAGUAAUCCUUUAAAUUUAUAACUUGAGGAUCACCCAAGUAGAAGGCGCGAUAU [JR_Ex2_Sub055] (Eterna round: R97, puzzle: Exclusion 2) | 33 | 24.9 |  |  |  |  |
| AGUACUAUCACGAAAGUGAUAGUACAAAUAAGCUUUAGAACAUGAGGAUCACCCAUGUCCUCUUAAGCUCGUCUUAU [Mat - Sensor v2 -ver2- JL mod - D56] (Eterna round: R96, puzzle: Sensor v2, turn-off variant 2) | 14.8 | 17.1 | 143 |  |  |  |
| CUGAGCAGACGGAGAUCCAACAUGAGGAUCACCCAUGUCUCAAAAGCUUUUUGCUCGUCUUAUUCUCCUCUGUUCUC [Ainre] (puzzle: Sensor v3, turn-off variant 1) |  |  |  | 14.3 | 33.3 | 12.5 |
| GUCAGCUCGUCAGGAUAUACAUGAGGAUCACCCAUGUGGUCAUUAGCAGCUUCGGCUGCAUUAAUGUAGAAGGGACGAGCUGAC [ENG2/8-B1] (Eterna round: R96, puzzle: Exclusion NG 2) | 1120 | 591 | 357 |  |  |  |
| UCUCGCGGGCAAGGAUAUCCCACGCUGUUCUGGCCCGUGUCUGUUACAUGAGGAUCACCCAUGUGGGAGAAGGUGCACCAGGGC [Design 43] (Eterna round: R96, puzzle: Exclusion NG 2) | 30.9 | 29.4 | 16.8 |  |  |  |
| GUUGCAAGCACUUACGUUGACAUGAGGAUCACCCAUGUAGCAUCUCCGCCAAUCUAAGCCGUUGUCUUAUAUACCUU [Eternabot (L2) Solution 3] (Eterna round: R97, puzzle: Sensor, turn-off variant 1) | 34.5 | 51.7 |  |  |  |  |
| UCGACGUCGUCAGGAUAUAGUUUUAAUGUCAUGCUUUUGUUCGUACAUGAGGAUCACCCAUGUGGCUAGAAGGGACUAAAGAUU [JR_ExcNG2_Sub014] (Eterna round: R96, puzzle: Exclusion NG 2) | 22.9 | 18.8 | 27 |  |  |  |
| GCUAGAGCAGGAUAUUCAAAACCUCACAUGAGGAUCACCCAUGUGGCCGAAAGGCCGGGAGGAGAAGGGCUCUAGC [Mat - Exclusion 5 - Eli mod - D84] (puzzle: Exclusion 5) |  |  |  | 41.6 | 15.1 | 17.2 |
| UACAUGAGGAUCACCCAUGUUUUGUCGUGUAUGGUAUUUAUCUAGGAUAUCAUUUUAUCUAGUUAUGAGAAGGAGAAUAUUAAU [JMF's solution 89] (Eterna round: R96, puzzle: Exclusion NG 3) |  |  | 26.6 |  |  |  |
| AAAUGCAAGUAAAGAUCUUACAUGAGGAUCACCCAUGUGCUCGUCUUAUAAAGUACUAUCACGAAAGUGAUAGUACA [Sensor 3, v1 - 27] (puzzle: Sensor v3, turn-off variant 1) |  |  |  | 18.5 | 76.9 | 19.3 |
| AAACAACAUGAGGAUCACCCAUGUAAGGAUAUGCGAGUUGGGUCAACGAAGGUUGAAGGCAGAAGGUAUAGGGU [Erxevees] (puzzle: Exclusion 1) |  |  |  |  | 49.3 |  |
| UUUUAACAUGAGGAUCACCCAUGUGAGGAUAUCGAAAUUUAUAUUAAUAUUUAUUUUUCGAGAAGGCACAUUUU [JMF 65] (puzzle: Exclusion 1) |  |  |  |  | 157 |  |
| UUUAUGUCAGGAUAUGAUUAGAUCUACUUUUGUAGAUCUAAUCAGAAGGGACAUGAGGAUCACCCAUGUUUUUU [Ex4 - 3 - 15] (puzzle: Exclusion 4) |  |  |  |  | 41.2 |  |
| UAAAAGCUAGGAUAUGCAAGGUCCGACAUGAGGAUCACCCAUGUGCUCCUAUGCACAUUUGCAGAAGGAGCGAAAA [EX5 A.6] (Eterna round: R97, puzzle: Exclusion 5) | 537 | 83 |  |  |  |  |
| UUGGUUGUGGUAGGAUAUCCGUUGGAAACCGUCGGAGAAGGACCACAGUCACUGGGUCUUUGUCUGGUGGACUGGAAUCACCAU [pwkr exNG1 F6.21] (Eterna round: R96, puzzle: Exclusion NG 1) | 295 | 224 | 157 |  |  |  |
| CCGCUACAUGAGGAUCACCCAUGUCAGGAUAUCGUACGUUCGUCGAUAGACGAUCGUACGAGAAGGGUGAGCGG [Mat - Exclusion 1 - Eli Mod - D37] (Eterna round: R97, puzzle: Exclusion 1) | 156 | 209 |  |  |  |  |
| UUUUUAUAUGAAGGAUAUACUUAACAUGAGGAUCACCCAUGUGGUGUUGUGAGUGAGUGAGUUUAGUAGAAGGUCAAGUAUUUU [JMF's solution 8] (Eterna round: R96, puzzle: Exclusion NG 2) | 431 | 431 | 265 |  |  |  |
| AAUUUACAUGAGGAUCACCCAUGUGAGGAUAUAUGUAAACAAUUUUUAUUCAUCAAACAUAGAAGGCGCGUGAU [JR_Exc1_Sub044] (Eterna round: R97, puzzle: Exclusion 1) | 41.3 | 42.6 |  |  |  |  |

| Sequence | apparent KD of MS2 coat protein (input ligand: FMN 200 uM) [nM] | apparent KD of MS2 coat protein (input ligand: none) [nM] | apparent KD of MS2 coat protein [1] [nM] | apparent KD of MS2 coat protein [2] [nM] | apparent KD of MS2 coat protein [3] [nM] | apparent KD of MS2 coat protein [4] [nM] |
| --- | --- | --- | --- | --- | --- | --- |
| GCCGAUUAAGUGAGGAUAUACCUAUGGAUACAUAGGUAGAAGGCACAUGAGGAUCACCCAUGUUCCUUAACGGC [Fiskers BMX 4 - 7] (puzzle: Brourd's mod of Exclusion 4) |  |  |  |  | 10.5 |  |
| UACAUGAGGAUCACCCAUGUUUUGUCGUGUAUGGUAUUUAUCUAGGAUAUCAAUUUGAUUAUUUAUGAGAAGGAGAAUAUUAAU [JMF's solution 65] (Eterna round: R96, puzzle: Exclusion NG 3) | 39.1 | 39.1 | 28.8 |  |  |  |
| CGCGCCUGGGUCGAACGACACAUGAGGAUCACCCAUGUCAGAGGCGUAGAAUGCACAAGCUUUGACCUCGUUACGCU [Eternabot (L2) Solution 39] (Eterna round: R97, puzzle: Sensor, turn-off variant 1) | 18 | 18.5 |  |  |  |  |
| ACAUGUCAUCGAGGAUAUUGGACACAUGAGGAUCACCCAUGUACCCGGAGGCUCUACUAUGAGUUCGAGAAGGCGAUGUACAUG [Ex NG2 #74] (Eterna round: R96, puzzle: Exclusion NG 2) | 169 | 25.6 | 19.5 |  |  |  |
| AUAAUUAGAGGAUAUGGUACAUUGCACAUGAGGAUCACCCAUGUAAGGUGACCCAUGUCGCCAGAAGGCUGAUAUG [Eternabot (L2) Solution 46] (Eterna round: R97, puzzle: Exclusion 5) | 3460 | 460 |  |  |  |  |
| UAUUAGCAAGCAAGGUCCCACAUGAGGAUCACCCAUGUGCUCGUCUUAUAAGGUACUGUGACGAAAGUCACGGUACC [Sensor 3, v1 - 92] (puzzle: Sensor v3, turn-off variant 1) |  |  |  | 46.6 |  | 53.1 |
| ACAAGCUUUUAGAUUCUUAACAUGAGGAUCACCCAUGUGCUCGUCUUAUUGGGCCCGGGCCCGCCGGGCCCGGGCCC (Eterna round: R97, puzzle: Sensor, turn-off variant 1) | 39.2 | 42.6 |  |  |  |  |
| AGUCUGCUAGGAUAUACAUGAGGAUCACCCAUGUCUAUCAAAAGACUAUUAACCUGGUGUAGAAGGAGCUUGUA [Lasodiar] (puzzle: Exclusion 3) |  |  |  |  | 10.7 |  |
| GUUUGACAUGAGGAUCACCCAUGUAAGGAUAUACGAGUAGCUACUAGGUAGUUAGUAUGUAGAAGGUACGUGUU [EX1 #65] (Eterna round: R97, puzzle: Exclusion 1) | 50.4 | 40.3 |  |  |  |  |
| CGUAUGUGAGGAUAUGACAAUGGUAUCUUCGGAUACCAUUGUCAGAAGGUACAUGAGGAUCACCCAUGUAGAUC [Exclusion 4 - Mod Brourd Ex 4-3: 20 v.3] (puzzle: Exclusion 4) |  |  |  |  | 24 |  |
| AAUCCACAUGAGGAUCACCCAUGUGAGGAUAUGAUACUAUGUACUUCGGUACAUAGUAUCAGAAGGCACAAAGG [Ex1-3: 52] (puzzle: Exclusion 1) |  |  |  |  | 56 |  |
| CAGUACUGAGGAUAUACAUGAGGAUCACCCAUGUGUCCCGGCUAGGAAACUAGCAAAAGUAGAAGGCAGUACUG [Fiskers Ex 3 828 mod 2] (Eterna round: R96, puzzle: Exclusion 3) | 494 | 24.1 | 21.6 |  |  |  |
| CUUAGACAUGAGGAUCACCCAUGUGAGGAUAUGAUGCGAUCGUCGAAAGACGAUAGCAUCAGAAGGUACAAAUG [Fiskers Ex 1 - 21] (puzzle: Exclusion 1) |  |  |  |  | 90.5 |  |
| CCAGCGUGUGUGAGGAUAUGCUGGUCCUUGGAUCAGCAGAAGGCACAUGAGGAUCACCCAUGUGAGAACGUUGG [JL bmx4 3.33] (puzzle: Brourd's mod of Exclusion 4) |  |  |  |  | 17.6 |  |
| ACCUAACAUGAGGAUCACCCAUGUCAGGAUAUCCAAGCGAAAGCAAAAGCGAAAGCAAGGAGAAGGGACAGAGG [ChP 04-04-2015 #8] (puzzle: Exclusion 1) |  |  |  | 62.2 | 32.4 | 28.4 |
| ACUUACUGAGGAUAUACAUAGAUUUACAUGAGGAUCACCCAUGUUCCUCUAUGUAUAAAUGUAGAAGGCAGAAGAU [Mat - Exclusion 5 - JL Mod - D55] (Eterna round: R97, puzzle: Exclusion 5) | 64.2 | 17.8 |  |  |  |  |
| AUAAGCCCGGCAGGAUAUCACAGGUUGCCGGGUAUCAACAUGAGGAUCACCCAUGUACACCUGCUUGAGAAGGGCCCAAGGGCG [Inarza] (Eterna round: R96, puzzle: Exclusion NG 2) | 163 | 80.3 | 69.6 |  |  |  |
